{
  "source": "patent US20260091082A1",
  "about": "“CYCLIC PEPTIDE DERIVATIVE COMPOSITION FOR TREATING OR PREVENTING EYE DISEASE” (DKS Co. Ltd., priority 2022, published 2026)",
  "key": {"[1]": {"tested_on": "laser-induced choroidal neovascularization rat model", "assay": "Laser-induced choroidal neovascularization rat model: CNV area in choroidal flat mount (FITC-dextran)", "type": "in vivo", "method": "The groups were set as in Table 8 below. Laser irradiation was performed on the right eye in 10 animals in each group. EYLEA (registered trademark) was administered intravitreally into the right eye of individuals in Group 2 immediately after laser irradiation. For the individuals of Groups 1, 3, and 4, eyedrop administration of the administration substances of each group was performed four times a day from the day of laser irradiation to the day before eyeball enucleation.\nAnimals to be laser-irradiated were subjected to pupil dilation with Mydorin (registered trademark) P ophthalmic solution, and subjected to general anesthesia by intramuscular injection of a mixed solution of ketamine hydrochloride/xylazine hydrochloride (4:1, v/v) (1 mL/kg) into the thigh muscle. Then, fundus of the right eye was then observed using a slit lamp (SL-130, Carl Zeiss Meditec AG), and laser irradiation was performed at six locations using a green laser photocoagulation device (GYC-500, Nidek Co., Ltd.), avoiding thick capillaries of the retina. The laser conditions were a wavelength of 532 nm (green), a spot size of 50 μm, an irradiation time of 0.1 sec, and a laser irradiation intensity of 300 mW. Except for the individuals to be administered EYLEA (registered trademark), sodium hyaluronate (Hyalein (registered trademark) ophthalmic solution 0.3%, Santen Pharmaceutical Co., Ltd.) as an eye drop for treatment of corneal and conjunctival epithelial disorders was instilled into both eyes after laser irradiation.\nLevofloxacin hydrate (CRAVIT (registered trademark) 1.5% ophthalmic solution, Santen Pharmaceutical Co., Ltd.) as a broad-spectrum antibacterial eye drop and oxybuprocaine hydrochloride (Benoxil (registered trademark) 0.4% ophthalmic solution, Santen Pharmaceutical Co., Ltd.) as an ophthalmic topical anesthetic were once instilled into the right eye of rats in Group 2 (EYLEA (registered trademark) administration group) after end of laser irradiation, and then EYLEA (registered trademark) was intravitreally administered at a dose of 200 μg/5 μL/eye using a 33 G two-stage injection needle and a microsyringe (Ito Manufacturing Co., Ltd.). The microsyringe was washed with D-PBS before administration. Hyalein (registered trademark) ophthalmic solution 0.3% was instilled into both eyes after intravitreal administration.\nEyedrop administration of the test substance and the negative control administration solution was performed in a volume of 5 μL/eye using a micropipette (Eppendorf Research Plus V, Eppendorf) at the administration period and the number of times determined for each group (see Group constitution table of Item (2)). At that time, since a test substance solution adheres to an outer side of the tip, care was taken so that the adhering test substance solution was wiped off with a Kimwipe once each time of eyedrop administration, and an excessive amount of the test substance solution was not instilled. In addition, although the tip of the pipette tip was sharp, care was taken not to damage the eyeball surface. Immediately before administration, the administration solution was lightly (about several seconds) centrifuged using a small microcentrifuge Wonder Spin, and the supernatant was used for administration.\nFourteen days after laser irradiation (Day 14), under general anesthesia by intramuscular femoral administration (1 mL/kg) of a ketamine hydrochloride/xylazine hydrochloride (4:1, v/v) mixed solution, a 4% FITC-dextran solution was administered to the tail vein at a dose of 40 mg/l mL/animal.\nAfter 1 minute from the tail vein administration of the 4% FITC-dextran solution, rats were euthanized by excessive anesthesia by administration of 129.6 mg/mL sodium pentobarbital solution and the right eye ball was enucleated. The enucleated eyeball was fixed in a 4% paraformaldehyde phosphate buffer (FUJIFILM Wako Pure Chemical Corporation, hereinafter referred to as 4% PFA) for 12 to 30 hours at normal temperature. […]"}, "[2]": {"assay": "Body weight measurement during the CNV rat test", "type": "in vivo", "conditions": "for Body Weight (Average): Group 2, IVT inj. 200 μg/5 μL/eye single dose; for Weight (g) (Individual): Group 2 individual animals, IVT 200 μg/5 μL/eye", "method": "The appearance, behavior, and state of excrement or the like were observed every day.\nThe body weight was measured on the animal arrival date, the preliminary housing end date (grouping date), the eyedrop administration start date, the laser irradiation date (Day 0), and the eyeball enucleation date (Day 14)."}},
  "note": "Where “and” joins values, the source holds several entries; their conditions need not be identical. Equal values may be shown once.",
  "data": [
    {"substance": "Aflibercept [EYLEA]", "values": [
      {"measurement": "Area of CNV Lesion, Mean", "setting": "[1]; Group 2, IVT inj. 200 μg/5 μL/eye single dose after irradiation, 14 days after laser, N=10", "value": 421359.3, "unit": "pixel"},
      {"measurement": "CNV area compared with Group 1 (saline), in words", "setting": "[1]; Group 2, intravitreal 200 μg/5 μL/eye, Student's t-test", "value": "CNV area was significantly reduced"},
      {"measurement": "Individual Value of CNV Area in Each Animal", "setting": "[1]; Group 2 individual animals, IVT 200 μg/5 μL/eye, 14 days after laser", "value": "396255.8 pixel and 417758.8 pixel and 460248.8 pixel and 470883.0 pixel and 474112.7 pixel and 444455.3 pixel and 440849.3 pixel and 374017.3 pixel and 402387.0 pixel and 332625.3 pixel"},
      {"measurement": "Body Weight (Average)", "setting": "[2]; Day 0 (Laser injection)", "value": 155.10, "unit": "g"},
      {"measurement": "Body Weight (Average)", "setting": "[2]; Day 14 (Enucleation)", "value": 200.52, "unit": "g"},
      {"measurement": "Body Weight (Average)", "setting": "[2]; Day −3 or Day −2 (Grouping)", "value": 141.91, "unit": "g"},
      {"measurement": "Weight (g) (Individual)", "setting": "[2]; Enucleation (Day 14)", "value": "191.41 g and 189.23 g and 203.15 g and 192.58 g and 215.19 g and 210.30 g and 206.10 g and 205.20 g and 197.20 g and 194.87 g"},
      {"measurement": "Weight (g) (Individual)", "setting": "[2]; Grouping (Day −3 or −2)", "value": "132.69 g and 135.94 g and 139.54 g and 143.39 g and 145.96 g and 144.35 g and 147.21 g and 151.85 g and 140.51 g and 137.64 g"},
      {"measurement": "Weight (g) (Individual)", "setting": "[2]; Laser injection (Day 0)", "value": "140.59 g and 146.82 g and 151.42 g and 154.62 g and 160.15 g and 162.32 g and 160.99 g and 169.71 g and 155.47 g and 148.87 g"}
    ]}
  ]
}
